The chains are these.
B1: antibody 10G5 (antibody, V domains shown)
VH: QVQLQQSAAELARPGASVKMSCKASGYTFTSYTMHWVKQRPGQGLEWIGYINPSSGYTENNRKFKDKTTLTADKSSSTAYMQLSSLTSEDSAVYYCARLGKGLLPPFDYWGQGTTLTVSS
VL: DIQMTQSPASLSVSVGETVTITCRASENIYSNLAWYQQKQGKSPQLLVYAATNLADGVPSRFSGSGSGTQYSLKINSLQSEDFGSYYCQHFWGTPYTFGGGTKLEIK
B2: antibody 1E2 (antibody, V domains shown)
VH: QVQLQQSGAELVRPGVSVKISCKGSGYTFTDYAMNWVKQSHAKSLEWIGVISTYYGDANYNQKFKGKATMTVDKSSSTAYMELARLTSEDSAIYYCALIYYDYDGSYWGQGTTLTVS
VL: DVVMTQTPLSLPVSLGDQASISCRSSQSLVHSNGNTYLHWYLQKPGQSPKLLIYKVSNRFSGVPDRFSGSGSGTDFTLKISRVEAEDLGVYFCSQSTHVPPYTFGGGTKLEIK
B3: antibody 10F6 (antibody, V domains shown)
VH: QIQLVQSGPELKKPGETVRISCKASGYTFTIAGMQWVQKMPGKGLKWIGWINTHSGVPKYAEDFKGRFAFSLETSANIAYLQISNLKNEDTATYFCARGGDEGVMDYWGQGTSVTVS
VL: DIVMTQSHKFMSTSVGDRVSITCKASQDVSTAVAWYHQKPGQSPKLLIYWASTRHTGVPDRFSGSGSGTDYTLTISALQAEDLALYYCQQHYNTPWTFGGGTKLEIK
notes: Detected with goat anti-mouse antibody
B4: antibody 20E9 (antibody, V domains shown)
VH: QVQLQQSGAEVARPGASVKLSCKSSGFTFTTYWMQWVKQRPGQGLEWIGAIYPGDGDTRYTQKFKGKATLTADKSSITAYMQLSSLASEDSAVYYCARRGDYGNYGMDYWGQGTSVTVSS
VL: DVLMTQTPLSLPVSLGDQASISCRSSQSIVHSNGNTYLEWYLQKPGQSPKLLIYKVSNHFSGVPDRFSGSGSGTDFTLKISRVEAEDLGVYYCFQGSHVPPTFGGGTKLEIK
B5: antibody 1C3 (antibody, V domains shown)
VH: QVQLQQSGAELARPGASVKLSCKASGYTFTSYWMQWVKQRPGQGLEWIGAIYPGDGDTRYTQKFKGKATLTADKSSSTAYMQLSSLASEDSAVYYCARRYDGYYHFDYWGQGTTLTVS
VL: DIVMTQSPSSLAVTAGEKVTMSCKSSQSLLWSVNQKNYLSWYQQKQRQPPKLLIYGASIRESWVPDRFTGSGSGTDFTLTISNVHAEDLAVYYCQHNHGSFLPLTFGSGTKLEIK
B6: antibody 13H1 (antibody, V domains shown)
VH: EVQLQQSGPELVKPGASMKISCKASHYSFIGYTMNWVKQRHGKNLEWIGLINPYNGDTTYNQKFKGKASLTVDKSSSTAYMEILSLTSEDSAVYYCARENWGYPYAMDYWGQGTSVTVS
VL: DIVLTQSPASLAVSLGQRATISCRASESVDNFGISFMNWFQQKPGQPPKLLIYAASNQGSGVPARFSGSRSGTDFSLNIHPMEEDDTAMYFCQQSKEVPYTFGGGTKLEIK

T2 sequence (P43630 22-455 E158D): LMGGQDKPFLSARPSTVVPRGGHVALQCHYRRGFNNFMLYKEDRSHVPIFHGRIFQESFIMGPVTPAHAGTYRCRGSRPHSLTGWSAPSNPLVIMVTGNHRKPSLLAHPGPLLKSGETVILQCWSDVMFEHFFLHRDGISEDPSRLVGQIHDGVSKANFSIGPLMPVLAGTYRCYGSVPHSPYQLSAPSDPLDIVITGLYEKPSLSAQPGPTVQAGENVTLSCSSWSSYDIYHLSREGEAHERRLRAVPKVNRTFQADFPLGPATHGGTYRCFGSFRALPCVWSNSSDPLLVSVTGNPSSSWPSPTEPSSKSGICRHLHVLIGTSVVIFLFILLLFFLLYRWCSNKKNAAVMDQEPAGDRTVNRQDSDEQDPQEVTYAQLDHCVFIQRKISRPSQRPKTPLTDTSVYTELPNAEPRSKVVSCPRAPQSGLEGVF
T1 sequence (P43629 22-444 limits assumed): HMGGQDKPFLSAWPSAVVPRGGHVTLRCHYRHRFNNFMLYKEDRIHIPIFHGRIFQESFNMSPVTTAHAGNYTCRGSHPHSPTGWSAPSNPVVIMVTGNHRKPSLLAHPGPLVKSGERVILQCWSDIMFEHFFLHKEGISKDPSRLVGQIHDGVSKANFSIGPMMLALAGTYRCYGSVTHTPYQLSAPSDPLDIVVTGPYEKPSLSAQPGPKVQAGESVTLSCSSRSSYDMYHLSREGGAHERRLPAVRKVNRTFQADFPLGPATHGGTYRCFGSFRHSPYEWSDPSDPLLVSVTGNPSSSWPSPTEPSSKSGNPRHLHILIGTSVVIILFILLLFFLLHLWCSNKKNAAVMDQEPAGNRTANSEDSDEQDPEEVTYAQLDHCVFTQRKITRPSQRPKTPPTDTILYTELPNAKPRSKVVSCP

The first assay concerns the target T1, KIR3DL1 (CD158e1) (UniProt P43629 22-444, limits assumed).
T1 construct: also called closely related KIR3DL1
Put plainly: hybridoma screening (flow cytometry, incl. HEK-293T/KIR3DL1 Domain 0-eGFP). The method, then: Antibodies which bind KIR3DL2 but not closely related KIR3DL1 were generated by immunizing mice with recombinant KIR3DL2-Fc fusion protein, described in US patent publication number US-2015-0232556-A1. Supernatant (SN) of the growing hybridomas were tested by flow cytometry on Sezary Syndrome cell lines (HUT78, COU-L) and HEK-293T/KIR3DL2 Domain 0-eGFP. Potentially interesting hybridomas selected from the initial screening were cloned by limiting dilution techniques in 96-wells plates. The secondary screen involved selection of hybridomas of interest by testing supernatants of the subclones by flow cytometry on HUT78, COU-L, HEK-293T/KIR3DL1 Domain 0-eGFP and HEK-293T/KIR3DL2 Domain 0-eGFP. Positive subclones were injected into mice to produce ascitis and antibodies of interest were purified before being tested in a Biacore assay using rec KIR3DL2 chips, followed by various assays formats based on binding to human KIR3DL2-expressing cells.
In general terms: A flow cytometer gives signals particle by particle.
In the case of B1, the binding result is recorded as “no binding”.

The next assay has as its target T2, human KIR3DL2 (CD158k), wild type, at the cell surface (human, UniProt P43630 22-455).
T2 construct: also called WTaKIR3DL2; un-mutated wild type KIR3DL2
Briefly: fluoro-microscopy on HUT78 cells, 10 µg/ml, goat anti-mouse Alexa594. The method, then: Internalization of antibodies 10F6, 2B12, 18C6, 9E10, 10G5, 13H1, 4B5, 5H1, 1E2, 1C3 and 20E9, as well as antibody AZ158 (an anti-domain 0 mAb as comparator) and other anti-D1 antibodies as disclosed in PCT applications WO2014/044686 and WO2014/044681 were assessed by fluoro-microscopy using the HUT78 SS cell line.
Hut-78 cells were incubated during 1H at 4° C. with 10 μg/ml of the different antibodies. After this incubation cells were either fixed (t=OH) or incubated for 2H at 37° C. Cells incubated for 2H were then fixed and stained. Antibodies were stained using goat anti-mouse antibodies coupled to Alexa594 (Invitrogen, A11032). […] Pictures were acquired using an Apotome device (Zeiss) and analyzed using the Axiovision software.
On to B2, for which the binding result is on record as “binds”.

Turning to B3, the binding result is given as “binds”.

As for B4, the binding result was “binds”.

For the molecule B5, the binding result is listed as “binds”.

On to B6, for which the binding result was “binds”.

For the origin of these results see patent US20210087270A1 (INNATE PHARMA, published 2021).
